Here are results for three molecules from paper doi:10.1101/800169 (bioRxiv, 2019).

B2: EccB3 (natural protein)
chain: MTGPVNPDDRRSFSSRTPVNENPDGVQYRRGFVTRHQVSGWRFVMRRIASGVALHDTRMLVDPLRTQSRAVLTGALILVTGLVGCFIFSLFRPGGVPGNNAILADRSTSALYVRVGEQLHPVLNLTSARLISGSPDNPTMVKTSEIDKFPRGNLLGIPGAPERMVQNAATDAEWTVCDAVGGANPGVTVIAGPLGADGERAAPLPPDHAVLVHSDAEPNPGDWLLWDGKRSPIDLADRAVTDALGLGGQALAPRPIAAGLFNAVPAAPALTAPVIPDAGAAPQFELSLPVPVGAVVVAYDADNTARYYAVLSDGLQPISPVLAAILRNTDSHGFAQPPRLGPDEVARTPMSRGLDTSAYPDNPVTLVEASAHPVTCAHWTKPSDAAESSLSVLSGAVLPLAEGLHTVDLVGAGAGGAANRVALTPGTGYFVQTVGAEPGSPTAGSMFWVSDTGVRYGIDTAEDDKVVAALGLSTSPLPVPWSVLSQFAAGPALSRGDALVAHDAVSTNPNSARMEASR
B3: EccD3 (natural protein)
chain: MSENTVMPIVRVAVLAAGDDGGRLTEMALPSELPLREILPAVQRIVQPARENDGAADPAAAPNPVRLSLAPIGGAPFSLDATLDTVGVVDGDLLALQAVPSGPPAPRIVEDIADAAVIFSEARRRQWGPTHIARGAALALIGLILVGTGLSVAHRVITGDLLGQFIVSGIALATVIAALAVRNRSAVLATSLAVTALVPVAAAFALGVPGDFGAPNVLLAAAGVAAWSLISMAGSPDDRGIAVFTATAVTGVGVLLVAGAASLWVISSDVIGCALVLLGLIVTVQAAQLSAMWARFPLPVIPAPGDPTPAARPLSVLADLPRRVRVSQAHQTGVIAAGVLLGVAGSVALVSSANASPWAWYIVVAAAAGAALRARVWDSAACKAWLLGHSYLLAVALLVAFVIGDRYQAALWALAALAVLVLVWIVAALNPKIASPDTYSLPMRRMVGFLATGLDASLIPVMALLVGLFSLVLDR

What all share (assay): cryo-EM structure
In the data set “EccD3” the target is B3.
The target of a further data set is T1, EccC3 (M. smegmatis (endogenous in M. …, UniProt A0QQ40 1-1325)).
T1 sequence: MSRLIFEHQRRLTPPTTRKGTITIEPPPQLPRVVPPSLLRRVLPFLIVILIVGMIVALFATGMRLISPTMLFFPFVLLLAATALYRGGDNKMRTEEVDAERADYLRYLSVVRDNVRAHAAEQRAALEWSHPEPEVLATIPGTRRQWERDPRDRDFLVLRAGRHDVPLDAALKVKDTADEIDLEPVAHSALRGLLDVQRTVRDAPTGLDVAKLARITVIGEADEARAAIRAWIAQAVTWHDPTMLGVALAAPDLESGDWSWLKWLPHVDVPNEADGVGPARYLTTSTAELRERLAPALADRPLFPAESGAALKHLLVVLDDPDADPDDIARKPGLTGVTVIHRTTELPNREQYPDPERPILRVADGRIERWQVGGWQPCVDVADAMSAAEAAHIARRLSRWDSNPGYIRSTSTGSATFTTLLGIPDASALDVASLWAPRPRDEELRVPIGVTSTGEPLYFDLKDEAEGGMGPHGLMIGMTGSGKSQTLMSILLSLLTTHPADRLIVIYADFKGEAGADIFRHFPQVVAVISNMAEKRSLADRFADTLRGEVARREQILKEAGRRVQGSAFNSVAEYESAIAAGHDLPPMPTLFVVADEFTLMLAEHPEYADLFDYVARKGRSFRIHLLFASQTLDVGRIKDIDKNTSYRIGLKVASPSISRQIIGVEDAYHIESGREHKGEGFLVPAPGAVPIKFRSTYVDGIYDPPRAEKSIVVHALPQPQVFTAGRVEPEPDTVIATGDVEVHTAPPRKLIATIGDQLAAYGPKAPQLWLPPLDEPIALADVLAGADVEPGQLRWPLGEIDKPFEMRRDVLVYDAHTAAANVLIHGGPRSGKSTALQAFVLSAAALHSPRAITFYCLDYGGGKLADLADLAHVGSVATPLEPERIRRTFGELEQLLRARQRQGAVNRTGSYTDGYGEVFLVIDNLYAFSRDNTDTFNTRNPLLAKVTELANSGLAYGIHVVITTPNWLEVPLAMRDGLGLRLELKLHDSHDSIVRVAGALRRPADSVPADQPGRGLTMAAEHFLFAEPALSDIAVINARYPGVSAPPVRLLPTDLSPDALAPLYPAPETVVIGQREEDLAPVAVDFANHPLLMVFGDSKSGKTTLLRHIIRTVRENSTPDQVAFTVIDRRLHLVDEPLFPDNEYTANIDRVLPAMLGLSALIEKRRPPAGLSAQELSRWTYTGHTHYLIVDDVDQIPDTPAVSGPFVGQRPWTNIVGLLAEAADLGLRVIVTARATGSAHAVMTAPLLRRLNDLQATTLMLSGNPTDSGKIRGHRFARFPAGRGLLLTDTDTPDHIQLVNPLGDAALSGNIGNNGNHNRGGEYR

The data set “cryo-EM structure” deals with the molecule itself.
In the data set “EccB3” the target is B2.

By stoichiometry N is commonly meant a count of units in the complex or per binding partner.

B1: EccE3 (natural protein)
chain: MTARIALASLFVVAAVLAQPWQTTTQRWVLGVSIAAVIVLLAWWKGMFLTTRIGRALAMVRRNRAEDTVETDAHRATVVLRVDPAAPAQLPVVVGYLDRYGITCDKVRITHRDAGGTRRSWISLTVDAVDNLAALQARSARIPLQDTTEVVGRRLADHLREQGWTVTVVEGVDTPLPVSGKETWRGVADDAGVVAAYRVKVDDRLDEVLAEIGHLPAEETWTALEFTGSPAEPLLTVCAAVRTSDRPAAKAPLAGLTPARGRHRPALAALNPLSTERLDGTAVPLPAVVRTSVKGSVEHEAAQEAGHPA
For B1, the binding result in the data set with EccD3 is recorded as “binds”.
With B2, the binding result with EccC3 and in the data set “cryo-EM structure” was “binds” each time.
Turning to B3, the binding result with EccB3 and with EccC3 was “binds” each time. For the same molecule, the “stoichiometry N” value in “cryo-EM structure” was 2.
